Series [1] has as its system Act-PB1 (MDH activator protein Act of Bacillus methanolicus PB1).
For series [2], the target named is T1, Act-MGA3 (MDH activator protein Act of Bacillus methanolicus MGA3).
T1 sequence (Q8KP10 2-185, looked up): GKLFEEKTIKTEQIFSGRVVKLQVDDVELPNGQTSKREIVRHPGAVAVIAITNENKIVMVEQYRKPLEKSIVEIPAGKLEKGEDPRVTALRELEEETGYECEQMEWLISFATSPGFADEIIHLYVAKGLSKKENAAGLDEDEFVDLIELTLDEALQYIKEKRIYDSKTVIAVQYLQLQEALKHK

Take “Mdh1-PB1 (methanol dehydrogenase Mdh1 of Bacillus methanolicus PB1)”: in series [1], the Km for methanol in the presence of Act (20 ug MDH + 20 ug Act) came out at 2.3 mM; the Vmax with methanol in the presence of Act (20 ug MDH + 20 ug Act) is 0.056 U/mg; the “Vmax with methanol, with Act against single enzyme assay” value (“Vmax with methanol, with Act” for short) is on record as “The Vmax values were increased 4-6-fold compared to in the single enzyme assays”; the “fold reduction of Km,MeOH by Act” value is “substantially reduced (16-fold and 70-fold, respectively) in the presence of Act”.

In the case of “Mdh-PB1 (methanol dehydrogenase Mdh of Bacillus methanolicus PB1, encoded on plasmid pBM20)”, in series [1], the Km for methanol in the presence of Act (20 ug MDH + 20 ug Act) was found to be 13.9 mM; the Vmax with methanol in the presence of Act (20 ug MDH + 20 ug Act) worked out at 0.2 U/mg; the “Vmax with methanol, with Act” value was “The Vmax values were increased 4-6-fold compared to in the single enzyme assays”; the “fold reduction of Km,MeOH by Act” value was “substantially reduced (16-fold and 70-fold, respectively) in the presence of Act”.

B1: Mdh3-MGA3 (methanol dehydrogenase Mdh3 of Bacillus methanolicus MGA3) (protein)
chain: MKNTQSAFYMPSVNLFGAGSVNEVGTRLAGLGVKKALLVTDAGLHSLGLSEKIAGIIREAGVEVAIFPKAEPNPTDKNVAEGLEAYNAENCDSIVTLGGGSSHDAGKAIALVAANGGTIHDYEGVDVSKKPMVPLIAINTTAGTGSELTKFTIITDTERKVKMAIVDKHVTPTLSINDPELMVGMPPSLTAATGLDALTHAIEAYVSTGATPITDALAIQAIKIISKYLPRAVANGKDIEAREQMAFAQSLAGMAFNNAGLGYVHAIAHQLGGFYNFPHGVCNAILLPHVCRFNLISKVERYAEIAAFLGENVDGLSTYEAAEKAIKAIERMARDLNIPKGFKELGAKEEDIETLAKNAMNDACALTNPRKPKLEEVIQIIKNAM
On to B1, for which, in series [2], the Km for methanol in the presence of Act (20 ug MDH + 20 ug Act) stood at 150 mM; the Vmax with methanol in the presence of Act (20 ug MDH + 20 ug Act) was 0.45 U/mg; the “Vmax with methanol, with Act” value is recorded as “The Vmax values were increased 4-6-fold compared to in the single enzyme assays”; the “change of Km,MeOH by Act” value is “remained essentially the same as when tested without Act”. Further, in series [2], the “methanol dehydrogenase activity in lysates of recombinant B. subtilis 168, methanol or ethanol as substrate, 50 C” value was “In all cases, methanol dehydrogenase activities were significantly stimulated by Act”.

B2: Mdh2-MGA3 (methanol dehydrogenase Mdh2 of Bacillus methanolicus MGA3) (protein)
chain: MTNTQSAFFMPSVNLFGAGSVNEVGTRLADLGVKKALLVTDAGLHGLGLSEKISSIIRAAGVEVSIFPKAEPNPTDKNVAEGLEAYNAENCDSIVTLGGGSSHDAGKAIALVAANGGKIHDYEGVDVSKEPMVPLIAINTTAGTGSELTKFTIITDTERKVKMAIVDKHVTPTLSINDPELMVGMPPSLTAATGLDALTHAIEAYVSTGATPITDALAIQAIKIISKYLPRAVANGKDIEAREQMAFAQSLAGMAFNNAGLGYVHAIAHQLGGFYNFPHGVCNAVLLPYVCRFNLISKVERYAEIAAFLGENVDGLSTYDAAEKAIKAIERMAKDLNIPKGFKELGAKEEDIETLAKNAMKDACALTNPRKPKLEEVIQIIKNAM
For the molecule B2, in series [2], the Km for methanol in the presence of Act (20 ug MDH + 20 ug Act) was determined as 200 mM; the Vmax with methanol in the presence of Act (20 ug MDH + 20 ug Act) turned out to be 0.15 U/mg; the “Vmax with methanol, with Act” value is listed as “The Vmax values were increased 4-6-fold compared to in the single enzyme assays”; the “change of Km,MeOH by Act” value is “remained essentially the same as when tested without Act”. Further, the “methanol dehydrogenase activity in lysates of recombinant B. subtilis 168, methanol or ethanol as substrate, 50 C” value in series [2] is “In all cases, methanol dehydrogenase activities were significantly stimulated by Act”.

Values taken from patent US20150267177A1.
